# Data published in patent publication US20240360246A1 (BIO Y A S, published 2024).
# Assays:
# [1] = target: T1, Human YKL-40 also known as Chitinase-3-like protein 1 (CHI3L1) (human, UniProt P36222 22-383); test: phage ELISA
# T1 construct: Secreted protein purified from MG63 supernatant or purchased (Catalogue #2599-CH); also called hYKL-40
# [2] = target: T1, Human YKL-40 also known as …; test: ELISA
# [3] = target: T2, Murine YKL-40 (mouse, UniProt Q61362 30-389); test: ELISA
# T2 construct: Purchased (Catalogue #2649-CH); also called mYKL-40; mouse YKL-40
# [4] = target: T1, Human YKL-40 also known as …; test: ELISA, plate coated with 2.5 µg/ml hYKL-40
# Procedure: A 96-well ELISA plate were coated with 2.5 μg/ml hYKL-40 or 2.5 μg/ml calmodulin as control. 0.25 μg/ml (8), […] (7), 1 μg/ml (6), 2.5 μg/ml (5), 6.25 μg/ml (4), 12.5 μg/ml (3), 15 μg/ml (2) and 20 μg/ml (1) of the antibodies B3 (SEQ ID NO: 3)-mFc or B10 (SEQ ID NO: 4)-mFc were added.
# [5] = target: T1, Human YKL-40 also known as …; test: dot blot
# Procedure: A dot blot was performed by adding 0.4 μg and 0.2 μg of hYKL-40, 0.4 μg and 0.2 μg mYKL-40, 0.4 μg and 0.2 μg of calmodulin (negative control) and PBS (negative control) onto the nitrocellulose membrane. The membrane was incubated with B3 (SEQ ID NO: 3)-hFc.
# A dot blot was performed by adding 0.4 μg and 0.2 μg of hYKL-40, 0.4 μg and 0.2 μg mYKL-40, 0.4 μg and 0.2 μg of calmodulin (negative control) and PBS (negative control) onto the nitrocellulose membrane. The area that the solution penetrates was minimized. The membrane was dried for 1 h at room temperature (RT). Afterwards the membrane was blocked in PBS with 0.1% Tween overnight at 4° C. followed by three washing steps with PBS with 0.1% Tween. The membrane was incubated with B3-hFc (1 μg/mL) in blocking buffer for 2 h at RT in a shaker followed by three washing steps with PBS with 0.1% Tween. The membrane was incubated with HRP anti-human secondary antibody for 2 hours at RT in shaker followed by three washing steps with PBS with 0.1% Tween. The western blot was developed with western blotting detection reagent.
# [6] = target: T1, Human YKL-40 also known as …; test: western blot
# Procedure: For the western blot 0.5 μg hYKL-40 or mYKL-40 were loaded onto a 4-20% SurePAGE, Bis-TRIS gel. The gel was run at 120V for 70 min and afterwards the samples were transferred to a nitrocellulose membrane using iBlot system. The membrane was incubated with 1 μg/ml primary antibody B10 (SEQ ID NO: 4)-hFc.
# T1 sequence (P36222 22-383 limits assumed): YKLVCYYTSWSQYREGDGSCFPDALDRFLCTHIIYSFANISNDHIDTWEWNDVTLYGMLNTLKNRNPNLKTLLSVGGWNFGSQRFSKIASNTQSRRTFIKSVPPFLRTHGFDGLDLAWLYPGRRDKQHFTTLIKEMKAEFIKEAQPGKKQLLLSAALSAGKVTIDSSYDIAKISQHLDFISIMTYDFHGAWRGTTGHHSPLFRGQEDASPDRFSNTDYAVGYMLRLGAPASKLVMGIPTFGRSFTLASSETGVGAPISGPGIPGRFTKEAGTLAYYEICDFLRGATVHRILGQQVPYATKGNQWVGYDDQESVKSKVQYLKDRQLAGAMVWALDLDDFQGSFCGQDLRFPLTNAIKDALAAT
# T2 sequence (Q61362 30-389 limits assumed): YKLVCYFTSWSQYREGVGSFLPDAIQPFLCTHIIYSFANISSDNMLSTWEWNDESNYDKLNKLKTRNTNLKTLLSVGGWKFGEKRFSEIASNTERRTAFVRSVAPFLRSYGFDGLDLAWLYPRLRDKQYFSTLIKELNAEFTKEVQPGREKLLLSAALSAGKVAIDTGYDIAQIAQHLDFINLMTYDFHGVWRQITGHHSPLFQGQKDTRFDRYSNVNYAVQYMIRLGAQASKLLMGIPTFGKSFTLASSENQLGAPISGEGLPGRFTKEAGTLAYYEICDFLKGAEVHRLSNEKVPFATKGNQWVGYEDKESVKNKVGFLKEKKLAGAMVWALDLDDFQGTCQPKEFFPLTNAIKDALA
binder,measurement,setting,value
"B3 predator (phage antibody clone B3) (antibody, V domains shown) VH: EVQLLESGGGLVQPGGSLRLSCAASGFRDSDEDMGWVRQAPGKGLEWVSSISAPGGSTYYADSVKGRFTISRDNSKNTLYLQMNSLRAEDTAVYYCASHYNYGHWFDYWGQGTLVTVSS",binding result,[1],binds
"B10 predator (phage antibody clone B10) (antibody, V domains shown) VH: EVQLLESGGGLVQPGGSLRLSCAASGFRDSDEDMGWVRQAPGKGLEWVSSISADSGSTYYADSVKGRFTISRDNSKNTLYLQMNSLRAEDTAVYYCASDYNYWYWFDYWGQGTLVTVSS",binding result,[1],binds
"H7 antibody comprising a VL of SEQ ID NO: 14 and a VH of SEQ ID NO: 15 fused to human Fc regions (antibody, human IgG1, kappa, V domains shown, Chimeric mouse/human antibody; also called H7-hFc) VH: EVQLQQSGAELVKPGASVKLSCTASGFNIKDTYMHWVKQRPEQGLEWIGRIDPANGNTIYASKFQGKATITRDTSSNTAYMQLSSLTSGDTAVYYCTRGVYYYGGSFYAMDYWGQGTSVTVSS VL: DIQMTQSPASLSASVGETVTITCGASENIYGALNWYQRKQGKSPQLLIYGATTLADGMSSRFSGSGSGRQYSLKISSLHPDDVATYYCQNVLTTPWTFGGGTKLEIKT",binding result,[2],binds
same,binding result,[3],binds
"B3 (SEQ ID NO: 3) fused to murine Fc (mFc) (Fc fusion, VH domain fused to murine Fc; no linker stated; also called B3-mFc; B3 mouse) MAEVQLLESGGGLVQPGGSLRLSCAASGFRDSDEDMGWVRQAPGKGLEWVSSISAPGGSTYYADSVKGRFTISRDNSKNTLYLQMNSLRAEDTAVYYCASHYNYGHWFDYWGQGTLVTVSSAARSPPLKECPPCAAPDLLGGPSVFIFPPKIKDVLMISLSPMVTCVVVDVSEDDPDVQISWFVNNVEVHTAQTQTHREDYNSTLRVVSALPIQHQDWMSGKEFKCKVNNRALPSPIEKTISKPRGPVRAPQVYVLPPPAEEMTKKEFSLTCMITGFLPAEIAVDWTSNGRTEQNYKNTATVLDSDGSYFMYSKLRVQKSTWERGSLFACSVVHEGLHNHLTTKTISRSLGK",binding result,[4],binds
"B10 (SEQ ID NO: 4) fused to mFc (Fc fusion, VH domain fused to murine Fc; no linker stated; also called B10-mFc; B10 mouse) MAEVQLLESGGGLVQPGGSLRLSCAASGFRDSDEDMGWVRQAPGKGLEWVSSISADSGSTYYADSVKGRFTISRDNSKNTLYLQMNSLRAEDTAVYYCASDYNYWYWFDYWGQGTLVTVSSAARSPPLKECPPCAAPDLLGGPSVFIFPPKIKDVLMISLSPMVTCVVVDVSEDDPDVQISWFVNNVEVHTAQTQTHREDYNSTLRVVSALPIQHQDWMSGKEFKCKVNNRALPSPIEKTISKPRGPVRAPQVYVLPPPAEEMTKKEFSLTCMITGFLPAEIAVDWTSNGRTEQNYKNTATVLDSDGSYFMYSKLRVQKSTWERGSLFACSVVHEGLHNHLTTKTISRSLGK",binding result,[4],binds
"B3 (SEQ ID NO: 3) fused to a human Fc (hFc) (Fc fusion, VH domain fused to human Fc; no linker stated; also called B3-hFc) MAEVQLLESGGGLVQPGGSLRLSCAASGFRDSDEDMGWVRQAPGKGLEWVSSISAPGGSTYYADSVKGRFTISRDNSKNTLYLQMNSLRAEDTAVYYCASHYNYGHWFDYWGQGTLVTVSSAAVECPPCPAPPVAGPSVFLFPPKPKDTLMISRTPEVTCVVVDVSHEDPEVQFNWYVDGMEVHNAKTKPREEQFNSTFRVVSVLTVVHQDWLNGKEYKCKVSNKGLPAPIEKTISKTKGQPREPQVYTLPPSREEMTKNQVSLTCLVKGFYPSDIAVEWESNGQPENNYKTTPPMLDSDGSFFLYSKLTVDKSRWQQGNVFSCSVMHEALHNHYTQKSLSLSPGK",binding result,[5],binds
"B10 (SEQ ID NO: 4) fused to a human Fc (Fc fusion, VH domain fused to human Fc; no linker stated; also called B10-hFc) MAEVQLLESGGGLVQPGGSLRLSCAASGFRDSDEDMGWVRQAPGKGLEWVSSISADSGSTYYADSVKGRFTISRDNSKNTLYLQMNSLRAEDTAVYYCASDYNYWYWFDYWGQGTLVTVSSAAVECPPCPAPPVAGPSVFLFPPKPKDTLMISRTPEVTCVVVDVSHEDPEVQFNWYVDGMEVHNAKTKPREEQFNSTFRVVSVLTVVHQDWLNGKEYKCKVSNKGLPAPIEKTISKTKGQPREPQVYTLPPSREEMTKNQVSLTCLVKGFYPSDIAVEWESNGQPENNYKTTPPMLDSDGSFFLYSKLTVDKSRWQQGNVFSCSVMHEALHNHYTQKSLSLSPGK",binding result,[6],binds
